The text below walks through data of patent publication US7501122 (Genentech, dated 2009).

Experiment [1] has as its target T1, ErbB4 (HER4) (UniProt Q15303 26-651, limits assumed).
T1 sequence (looked up): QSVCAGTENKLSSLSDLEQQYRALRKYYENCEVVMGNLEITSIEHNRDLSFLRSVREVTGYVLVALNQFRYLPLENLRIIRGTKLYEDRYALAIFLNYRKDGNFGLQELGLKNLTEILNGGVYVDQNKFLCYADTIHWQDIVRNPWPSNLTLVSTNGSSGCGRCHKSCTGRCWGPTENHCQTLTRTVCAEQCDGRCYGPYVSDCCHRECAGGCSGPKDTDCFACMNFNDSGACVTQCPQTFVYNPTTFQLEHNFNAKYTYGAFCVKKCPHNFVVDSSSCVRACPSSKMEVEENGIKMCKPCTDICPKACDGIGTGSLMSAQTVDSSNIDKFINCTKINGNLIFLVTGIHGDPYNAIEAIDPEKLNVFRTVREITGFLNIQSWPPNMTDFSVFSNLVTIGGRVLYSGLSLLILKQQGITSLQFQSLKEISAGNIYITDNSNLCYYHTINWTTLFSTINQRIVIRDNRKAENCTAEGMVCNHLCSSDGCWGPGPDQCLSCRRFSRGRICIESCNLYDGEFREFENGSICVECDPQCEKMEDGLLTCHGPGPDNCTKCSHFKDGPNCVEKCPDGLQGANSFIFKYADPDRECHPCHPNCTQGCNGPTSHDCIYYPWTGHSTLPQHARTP
Put plainly: not described.

Experiment [2] addresses T2, ErbB3 (HER3) (human, UniProt P21860 20-1342).
T2 construct: whole, on cells
Put plainly: not described.

T2 sequence (P21860 20-1342): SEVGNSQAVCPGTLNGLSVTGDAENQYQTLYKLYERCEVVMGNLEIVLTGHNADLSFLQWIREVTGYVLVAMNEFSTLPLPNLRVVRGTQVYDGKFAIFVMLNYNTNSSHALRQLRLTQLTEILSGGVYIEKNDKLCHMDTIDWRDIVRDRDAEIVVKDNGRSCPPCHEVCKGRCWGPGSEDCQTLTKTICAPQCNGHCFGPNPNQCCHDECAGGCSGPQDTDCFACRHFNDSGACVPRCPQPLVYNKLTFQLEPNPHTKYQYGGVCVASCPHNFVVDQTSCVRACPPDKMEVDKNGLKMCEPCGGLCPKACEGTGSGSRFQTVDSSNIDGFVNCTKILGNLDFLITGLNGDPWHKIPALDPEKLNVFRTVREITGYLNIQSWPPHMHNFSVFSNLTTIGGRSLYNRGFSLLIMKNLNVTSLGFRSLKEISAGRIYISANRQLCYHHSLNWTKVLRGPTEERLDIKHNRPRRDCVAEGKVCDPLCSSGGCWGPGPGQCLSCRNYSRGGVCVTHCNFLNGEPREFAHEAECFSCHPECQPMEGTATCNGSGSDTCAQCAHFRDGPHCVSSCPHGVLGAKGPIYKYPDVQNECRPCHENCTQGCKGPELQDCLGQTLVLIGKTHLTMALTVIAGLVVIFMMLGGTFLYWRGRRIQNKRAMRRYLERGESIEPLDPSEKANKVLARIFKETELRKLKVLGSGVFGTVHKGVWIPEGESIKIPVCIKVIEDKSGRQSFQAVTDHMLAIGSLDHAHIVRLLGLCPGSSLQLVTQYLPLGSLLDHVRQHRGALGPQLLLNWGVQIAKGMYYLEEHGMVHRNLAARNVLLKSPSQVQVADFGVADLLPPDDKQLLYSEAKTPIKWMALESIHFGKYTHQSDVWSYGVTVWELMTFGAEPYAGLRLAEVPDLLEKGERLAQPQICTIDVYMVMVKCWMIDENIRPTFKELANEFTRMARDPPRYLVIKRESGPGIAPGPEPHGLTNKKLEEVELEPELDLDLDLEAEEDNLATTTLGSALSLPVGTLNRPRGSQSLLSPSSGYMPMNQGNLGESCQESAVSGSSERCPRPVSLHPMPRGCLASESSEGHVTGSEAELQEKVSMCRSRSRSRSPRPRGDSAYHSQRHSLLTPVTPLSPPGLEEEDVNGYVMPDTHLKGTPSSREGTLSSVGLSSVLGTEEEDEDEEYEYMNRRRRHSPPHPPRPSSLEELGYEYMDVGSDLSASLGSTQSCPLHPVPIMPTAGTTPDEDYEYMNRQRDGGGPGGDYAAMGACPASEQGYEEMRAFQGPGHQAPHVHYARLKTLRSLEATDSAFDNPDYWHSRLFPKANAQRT

B1: murine monoclonal antibody 2C4 (antibody, V domains shown)
VH: EVQLQQSGPELVKPGTSVKISCKASGFTFTDYTMDWVKQSHGKSLEWIGDVNPNSGGSIYNQRFKGKASLTVDRSSRIVYMELRSLTFEDTAVYYCARNLGPSFYFDYWGQGTTLTVSS
VL: DTVMTQSHKIMSTSVGDRVSITCKASQDVSIGVAWYQQRPGQSPKLLIYSASYRYTGVPDRFTGSGSGTDFTFTISSVQAEDLAVYYCQQYYIYPYTFGGGTKLEIK
notes: also called mu 2C4; intact murine 2C4
Consider B1, for which the binding result in experiment [1] and in experiment [2] was “no binding” throughout.
